Source: US20250206834A1 (LANOVA MEDICINES, published 2025)

T1: human CEACAM5 protein (Sino-11077-H08H-100UG) (human, UniProt P06731 35-685)
T1 construct: Bought protein; also called soluble recombinant CEACAM5
T1 sequence (looked up): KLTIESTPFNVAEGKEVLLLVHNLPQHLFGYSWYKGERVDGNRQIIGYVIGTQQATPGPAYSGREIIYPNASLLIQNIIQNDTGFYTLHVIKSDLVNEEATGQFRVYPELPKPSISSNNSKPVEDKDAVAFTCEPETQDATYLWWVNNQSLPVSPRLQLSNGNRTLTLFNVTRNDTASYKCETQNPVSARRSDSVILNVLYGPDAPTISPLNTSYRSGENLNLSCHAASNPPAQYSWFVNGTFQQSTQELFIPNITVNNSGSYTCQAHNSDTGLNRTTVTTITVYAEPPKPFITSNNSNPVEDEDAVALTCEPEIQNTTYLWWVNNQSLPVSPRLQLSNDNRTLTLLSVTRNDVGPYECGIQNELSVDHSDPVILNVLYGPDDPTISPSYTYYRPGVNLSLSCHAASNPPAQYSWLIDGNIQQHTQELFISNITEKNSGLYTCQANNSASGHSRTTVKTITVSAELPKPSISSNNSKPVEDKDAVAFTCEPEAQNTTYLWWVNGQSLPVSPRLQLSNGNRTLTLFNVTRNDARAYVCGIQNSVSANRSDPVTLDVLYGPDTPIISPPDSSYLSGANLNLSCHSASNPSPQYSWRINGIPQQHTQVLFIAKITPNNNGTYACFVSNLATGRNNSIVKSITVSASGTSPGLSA

B1: IMMU130-263-1-3 (bispecific antibody)
heavy (part 1 of 2): EVQLVESGGGVVQPGRSLRLSCSASGFDFTTYWMSWVRQAPGKGLEWIGEIHPDSSTINYAPSLKDRFTISRDNAKNTLFLQMDSLRPEDTGVYFCASLYFGFPWFAYWGQGTPVTVSS
heavy (part 2 of 2): GGGGSGGGGSGGGGSGGGGSEVQLLESGGGLVQPGGSLRLSCAASGFTFSSSAMSWARQTPGKGFEWVSGIYSGGSTYYTESVKDRFTISRDNSKNTVYLQMNSLKPEDTAVYYCATWGTLRFGVWAEYDHWGQGTQVTVSS
light: DIQLTQSPSSLSASVGDRVTITCKASQDVGTSVAWYQQKPGKAPKLLIYWTSTRHTGVPSRFSGSGSGTDFTFTISSLQPEDIATYYCQQYSLYRSFGQGTKVEIK
notes: also called parental bispecific antibody; parental antibody; not shown: IgG1 heavy chain constant region (full IgG part, Fc of IgG1 backbone with N297A mutation); light chain constant region is not described
B2: Labetuzumab (antibody, V domains shown)
VH: B1 heavy (part 1 of 2)
VL: B1 light
notes: also called Immu130; parental CEACAM5 antibody

Experiments:
human 4-1BB = biological target: T2, human 4-1BB (human, UniProt Q07011 24-255); assay: flow cytometry, CHO-K1 cells overexpressing human 4-1BB
T2 construct: whole, on cells; also called hu4-1BB; CD137

[1] = biological target: T1, human CEACAM5 protein …; assay: ELISA, human CEACAM5 protein coated at 2 ug/mL

T2 sequence (Q07011 24-255): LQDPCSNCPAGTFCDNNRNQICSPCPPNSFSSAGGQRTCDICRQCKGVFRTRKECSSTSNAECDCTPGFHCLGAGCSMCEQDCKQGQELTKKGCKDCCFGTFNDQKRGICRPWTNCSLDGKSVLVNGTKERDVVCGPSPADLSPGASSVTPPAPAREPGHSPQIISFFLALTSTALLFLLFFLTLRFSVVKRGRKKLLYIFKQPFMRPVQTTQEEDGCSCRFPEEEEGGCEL

| Binder | binding result (human 4-1BB) | binding result [1] |
| --- | --- | --- |
| B1 | binds |  |
| B2 |  | binds |
